B1: MBP-BEX2 (natural protein)
chain: MESKEERALNNLIVENVNQENDEKDEKEQVANKGEPLALPLNVSEYCVPRGNRRRFRVRQPILQYRWDIMHRLGEPQARMREENMERIGEEVRQLMEKLREKQLSHSLRAVSTDPPHHDHHDEFCLMP
notes: Protein BEX2, human; source: E. coli BL21(DE3), purified (Ni-NTA, Superdex 200); not shown: MBP, N-terminal, kept
B2: FNIP1/FLCN complex (complex, human)
chain 1: MAPTLFQKLFSKRTGLGAPGRDARDPDCGFSWPLPEFDPSQIRLIVYQDCERRGRNVLFDSSVKRRNEDISVSKLGSDAQVKVFGKCCQLKPGGDSSSSLDSSVTSSSDIKDQCLKYQGSRCSSDANMLGEMMFGSVAMSYKGSTLKIHQIRSPPQLMLSKVFTARTGSSICGSLNTLQDSLEFINQDNNTLKADNNTVINGLLGNIGLSQFCSPRRAFSEQGPLRLIRSASFFAVHSNPMDMPGRELNEDRDSGIARSASLSSLLITPFPSPNSSLTRSCASSYQRRWRRSQTTSLENGVFPRWSIEESFNLSDESCGPNPGIVRKKKIAIGVIFSLSKDEDENNKFNEFFFSHFPLFESHMNKLKSAIEQAMKMSRRSADASQRSLAYNRIVDALNEFRTTICNLYTMPRIGEPVWLTMMSGTPEKNHLCYRFMKEFTFLMENASKNQFLPALITAVLTNHLAWVPTVMPNGQPPIKIFLEKHSSQSVDMLAKTHPYNPLWAQLGDLYGAIGSPVRLARTVVVGKRQDMVQRLLYFLTYFIRCSELQETHLLENGEDEAIVMPGTVITTTLEKGEIEESEYVLVTMHRNKSSLLFKESEEIRTPNCNCKYCSHPLLGQNVENISQQEREDIQNSSKELLGISDECQMISPSDCQEENAVDVKQYRDKLRTCFDAKLETVVCTGSVPVDKCALSESGLESTEETWQSEKLLDSDSHTGKAMRSTGMVVEKKPPDKIVPASFSCEAAQTKVTFLIGDSMSPDSDTELRSQAVVDQITRHHTKPLKEERGAIDQHQETKQTTKDQSGESDTQNMVSEEPCELPCWNHSDPESMSLFDEYFNDDSIETRTIDDVPFKTSTDSKDHCCMLEFSKILCTKNNKQNNEFCKCIETVPQDSCKTCFPQQDQRDTLSILVPHGDKESSDKKIAVGTEWDIPRNESSDSALGDSESEDTGHDMTRQVSSYYGGEQEDWAEEDEIPFPGSKLIEVSAVQPNIANFGRSLLGGYCSSYVPDFVLQGIGSDERFRQCLMSDLSHAVQHPVLDEPIAEAVCIIADMDKWTVQVASSQRRVTDNKLGKEVLVSSLVSNLLHSTLQLYKHNLSPNFCVMHLEDRLQELYFKSKMLSEYLRGQMRVHVKELGVVLGIESSDLPLLAAVASTHSPYVAQILL
chain 2: MNAIVALCHFCELHGPRTLFCTEVLHAPLPQGDGNEDSPGQGEQAEEEEGGIQMNSRMRAHSPAEGASVESSSPGPKKSDMCEGCRSLAAGHPGYISHDKETSIKYVSHQHPSHPQLFSIVRQACVRSLSCEVCPGREGPIFFGDEQHGFVFSHTFFIKDSLARGFQRWYSIITIMMDRIYLINSWPFLLGKVRGIIDELQGKALKVFEAEQFGCPQRAQRMNTAFTPFLHQRNGNAARSLTSLTSDDNLWACLHTSFAWLLKACGSRLTEKLLEGAPTEDTLVQMEKLADLEEESESWDNSEAEEEEKAPVLPESTEGRELTQGPAESSSLSGCGSWQPRKLPVFKSLRHMRQVLGAPSFRMLAWHVLMGNQVIWKSRDVDLVQSAFEVLRTMLPVGCVRIIPYSSQYEEAYRCNFLGLSPHVQIPPHVLSSEFAVIVEVHAAARSTLHPVGCEDDQSLSKYEFVVTSGSPVAADRVGPTILNKIEAALTNQNLSVDVVDQCLVCLKEEWMNKVKVLFKFTKVDSRPKEDTQKLLSILGASEEDNVKLLKFWMTGLSKTYKSHLMSTVRSPTASESRN
notes: Folliculin (FLCN), human; Calculated mass of the heterodimer printed as 195.8 kDa; also called FNIP1/FLCN heterodimer; source: HEK293F, BacMam baculovirus, purified (Ni-NTA, Strep Trap, TEV, Superose 6); not shown: mCherry, C-terminal, cleaved; His6, C-terminal, cleaved; 2x Strep-tag, C-terminal, cleaved

How the values were obtained:
Details in all cases: both partners purified
[1] = target: T1, CRL2^FEM1B complex with FEM1B^Δ546-553 (FEM1B^DEL), unneddylated (human, UniProt Q13617 1-745; P62877 1-108; Q15370 1-104; Q15369 17-112; Q9UK73 1-627, Δ546-553); test: grating-coupled interferometry; Creoptix WAVE; MBP-BEX2 and FNIP1/FLCN amine-coupled to 4PCP chips; CRL2^FEM1B injected in a 1:3 dilution series from 1 μM in 10 mM HEPES pH 7.5, 150 mM NaCl, 50 μM ZnCl2, 25 °C; 1:1 kinetics model
T1 construct: Cullin-2 (CUL2), human; primers from the start codon to the last codon; RING-box protein 1 (RBX1), human; primers from the start codon to the stop codon; Elongin-B (ELOB), human, residues 1-104; Elongin-C (ELOC), human, residues 17-112; Protein fem-1 homolog B (FEM1B), human, with residues 546-553 deleted; also called CRL2FEM1B-DEL; source: CUL2/RBX1 from SF9 insect cells and mutant …

[2] = target: T2, CRL2^FEM1B complex with FEM1B^F549R, unneddylated (human, UniProt Q13617 1-745; P62877 1-108; Q15370 1-104; Q15369 17-112; Q9UK73 1-627, F549R); test: as above
T2 construct: Cullin-2 (CUL2), human; primers from the start codon to the last codon; RING-box protein 1 (RBX1), human; primers from the start codon to the stop codon; Elongin-B (ELOB), human, residues 1-104; Elongin-C (ELOC), human, residues 17-112; Protein fem-1 homolog B (FEM1B), human, F549R; also called CRL2FEM1B-F549R; source: CUL2/RBX1 from SF9 insect cells and mutant FEM1B/ELOB/ELOC from E. coli …

[3] = target: T3, CRL2^FEM1B complex with FEM1B^F549S, unneddylated (human, UniProt Q13617 1-745; P62877 1-108; Q15370 1-104; Q15369 17-112; Q9UK73 1-627, F549S); test: as above
T3 construct: Cullin-2 (CUL2), human; primers from the start codon to the last codon; RING-box protein 1 (RBX1), human; primers from the start codon to the stop codon; Elongin-B (ELOB), human, residues 1-104; Elongin-C (ELOC), human, residues 17-112; Protein fem-1 homolog B (FEM1B), human, F549S; also called CRL2FEM1B-F549S; source: CUL2/RBX1 from SF9 insect cells and mutant FEM1B/ELOB/ELOC from E. coli …

[4] = target: T4, CRL2^FEM1B complex with FEM1B^F549T, unneddylated (human, UniProt Q13617 1-745; P62877 1-108; Q15370 1-104; Q15369 17-112; Q9UK73 1-627, F549T); test: as above
T4 construct: Cullin-2 (CUL2), human; primers from the start codon to the last codon; RING-box protein 1 (RBX1), human; primers from the start codon to the stop codon; Elongin-B (ELOB), human, residues 1-104; Elongin-C (ELOC), human, residues 17-112; Protein fem-1 homolog B (FEM1B), human, F549T; also called CRL2FEM1B-F549T; source: CUL2/RBX1 from SF9 insect cells and mutant FEM1B/ELOB/ELOC from E. coli …

[5] = target: T5, CRL2^FEM1B complex with FEM1B^Y275R/L278R, unneddylated (human, UniProt Q13617 1-745; P62877 1-108; Q15370 1-104; Q15369 17-112; Q9UK73 1-627, Y275R | L278R); test: as above
T5 construct: Cullin-2 (CUL2), human; primers from the start codon to the last codon; RING-box protein 1 (RBX1), human; primers from the start codon to the stop codon; Elongin-B (ELOB), human, residues 1-104; Elongin-C (ELOC), human, residues 17-112; Protein fem-1 homolog B (FEM1B), human, Y275R/L278R; also called CRL2FEM1B-Y275R/L278R; CRL2FEM1B-Y275RL278R; source: CUL2/RBX1 from SF9 insect cells and mutant …

[6] = target: T6, RBX1, as the subunit of CRL2^FEM1B (human, UniProt P62877 1-108); test: cryo-EM structure; neddylated CRL2^FEM1B and FNIP1-FLCN mixed 1:1.2, 1 h at 4 °C, GraFix, 1.38 mg/ml
T6 construct: RING-box protein 1 (RBX1), human; primers RBX1-f/RBX1-r run from the start codon to the stop codon; Seen as a subunit of the complexes m1 and m7 in the cryo-EM structures; source: SF9 insect cells, co-expressed with CUL2, purified; within the reconstituted CRL2^FEM1B complex
T6 sequence (P62877 whole entry): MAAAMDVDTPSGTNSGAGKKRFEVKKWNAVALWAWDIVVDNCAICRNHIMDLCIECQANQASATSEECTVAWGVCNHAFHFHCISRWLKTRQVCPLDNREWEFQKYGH

Row | Binder | Kd [1] | Kd [2] | Kd [3] | Kd [4] | Kd [5] | binding result [6]
1 | B1 | 6.62 nM | 14 nM | 23 nM | 109 nM | 3.99 nM | –
2 | B2 | 4.72 nM | 8.99 nM | 17.5 nM | 33.3 nM | 3.13 nM | binds

Reference: article PMC10943247 (The EMBO Journal, 2024)
